Test results taken from patent US20130296247A1.

Columns and labels:
Assay in all cases: cell-based or functional assay
[1] = biological target: Nav1.2 sodium channel (rBIIa) (UniProt P04775)
[2] = biological target: human Nav1.7 sodium channel alpha subunit (human) (UniProt Q15858)
[3] = biological target: Nav1.2 sodium channel (rBIIa), P04775

Chain of human Nav1.7 sodium channel alpha subunit (human) (Q15858 whole entry): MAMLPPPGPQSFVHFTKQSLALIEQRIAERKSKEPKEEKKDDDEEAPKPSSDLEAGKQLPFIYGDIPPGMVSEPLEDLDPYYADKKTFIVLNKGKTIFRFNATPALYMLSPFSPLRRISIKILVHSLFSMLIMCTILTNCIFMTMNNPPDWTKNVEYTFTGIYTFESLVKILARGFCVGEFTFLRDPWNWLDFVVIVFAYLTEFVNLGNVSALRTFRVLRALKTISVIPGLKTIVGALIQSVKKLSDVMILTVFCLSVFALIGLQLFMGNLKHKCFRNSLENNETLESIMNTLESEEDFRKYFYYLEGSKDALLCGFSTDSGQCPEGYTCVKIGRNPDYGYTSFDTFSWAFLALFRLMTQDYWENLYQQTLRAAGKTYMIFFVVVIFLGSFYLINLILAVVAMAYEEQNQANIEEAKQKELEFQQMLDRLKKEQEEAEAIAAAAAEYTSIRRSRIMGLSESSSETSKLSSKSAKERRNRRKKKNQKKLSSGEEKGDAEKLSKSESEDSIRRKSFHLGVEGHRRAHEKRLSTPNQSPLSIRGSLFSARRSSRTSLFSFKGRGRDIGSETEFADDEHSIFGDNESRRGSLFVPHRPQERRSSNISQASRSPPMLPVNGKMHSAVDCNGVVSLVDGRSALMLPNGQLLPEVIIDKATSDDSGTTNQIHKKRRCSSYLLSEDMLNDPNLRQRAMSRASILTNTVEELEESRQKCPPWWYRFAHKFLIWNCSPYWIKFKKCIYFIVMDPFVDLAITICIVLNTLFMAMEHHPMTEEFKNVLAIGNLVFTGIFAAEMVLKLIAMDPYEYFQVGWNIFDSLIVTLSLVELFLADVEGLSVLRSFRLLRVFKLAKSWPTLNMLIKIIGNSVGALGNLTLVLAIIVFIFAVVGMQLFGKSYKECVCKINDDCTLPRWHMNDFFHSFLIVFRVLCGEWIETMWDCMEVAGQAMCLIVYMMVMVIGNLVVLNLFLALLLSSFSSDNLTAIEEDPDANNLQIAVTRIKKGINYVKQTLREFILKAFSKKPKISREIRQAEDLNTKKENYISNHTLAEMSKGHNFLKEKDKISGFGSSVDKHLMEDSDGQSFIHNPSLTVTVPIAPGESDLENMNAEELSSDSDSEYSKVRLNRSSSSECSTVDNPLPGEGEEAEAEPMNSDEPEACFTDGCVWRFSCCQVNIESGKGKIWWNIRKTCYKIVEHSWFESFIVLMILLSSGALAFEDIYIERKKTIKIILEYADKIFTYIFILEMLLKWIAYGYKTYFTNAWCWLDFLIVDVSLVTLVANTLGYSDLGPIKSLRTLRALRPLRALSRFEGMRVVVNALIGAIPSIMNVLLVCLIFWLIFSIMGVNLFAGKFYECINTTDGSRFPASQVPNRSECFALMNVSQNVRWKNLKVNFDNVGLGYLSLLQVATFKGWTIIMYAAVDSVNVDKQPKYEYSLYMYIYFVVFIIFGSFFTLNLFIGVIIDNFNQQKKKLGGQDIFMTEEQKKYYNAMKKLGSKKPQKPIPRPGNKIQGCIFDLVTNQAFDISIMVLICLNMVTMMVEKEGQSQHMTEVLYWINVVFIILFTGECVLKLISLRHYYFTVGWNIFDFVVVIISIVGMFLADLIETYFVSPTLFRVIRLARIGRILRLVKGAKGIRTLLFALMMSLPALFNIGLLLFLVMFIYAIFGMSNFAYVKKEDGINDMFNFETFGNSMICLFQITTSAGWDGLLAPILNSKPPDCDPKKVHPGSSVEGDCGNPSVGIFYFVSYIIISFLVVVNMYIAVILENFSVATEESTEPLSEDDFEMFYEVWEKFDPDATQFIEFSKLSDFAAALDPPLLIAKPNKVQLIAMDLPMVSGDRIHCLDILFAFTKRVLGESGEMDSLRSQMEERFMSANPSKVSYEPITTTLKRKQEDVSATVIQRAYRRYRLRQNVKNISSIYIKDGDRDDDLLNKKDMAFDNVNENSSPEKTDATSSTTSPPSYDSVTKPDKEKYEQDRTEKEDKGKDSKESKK

Molecule | IC50 Nav1.2 [1] [nM] | IC50 Nav1.7 [2] [nM] | IC50 Nav1.2 [3] [nM]
GsAF II (peptide) | 410 | 70 | 
JzTx XII (peptide) | 73900 |  | 
Phrixotoxin I (peptide) | 5000 |  | 
GsMTx II/PaTX II (peptide) | 2700 | 260 | 
VsTx II (peptide) | 42400 | 9260 | 
GsAF I (peptide) | 255 | 249 | 
GrTx I (peptide) | 2690 | 1010 | 
JzTx V (peptide) | 157 | 14 | 
YCQKWMWTCDSERKCCEGMVCRLWCKKKLW (modifications not checked) [peptide of SEQ ID NO: 2] |  |  | 8
